For orientation: EC50 means the concentration giving half of the maximal effect.

Where no end group is shown, it is not given here. The star is where a group is joined. 125I = [125I]*

This is an account of results in paper PMC4442108, “Preclinical Validation of the Heparin-Reactive Peptide p5+14 as a Molecular Imaging Agent for Visceral Amyloidosis” (Molecules, 2015).

Data set [1] is described as follows: Dynamic PET/CT pharmacokinetics of 124I-p5+14 in WT mice. Format: in vivo, mouse (WT). Conditions: post injection. As to the method: Dynamic PET imaging required radioiodination of the peptide with positron emitter, Iodine-124 (^124I; IBA Molecular, Sterling, WV, USA). Peptide p5+14 was radiolabeled using the Iodogen (Piercechemical, Rockford, IL, USA) oxidation method, as described. Briefly, 10 µL of 0.5 M NaPO4 buffer pH 7.6 was added to a 1.5 mL microcentrifuge tube followed by addition of ~50 µL of ^124I (~2 mCi). One µL of 2 mg/mL fresh ascorbic acid solution in phosphate buffered saline (PBS) was added to ensure complete reduction of ^124I-iodine. Approximately 25 µL (~50 µg) of peptide dissolved in distilled H2O was mixed with ~75 µL of PBS and added to the reaction mixture. Seven µL of 1 mg/mL Iodogen dissolved in acetonitrile was added to initiate the reaction. After 2 min, the reaction was quenched by addition of 50 µL of 2 mg/mL ascorbic acid. Twenty µL of blue dextran and 50 µL of filtered (0.2 µm pore sized) 0.1% gelatin in PBS were added to the reaction mixture. Radiolabeled product was separated from free ^124I by size exclusion chromatography as described above. Fractions were manually collected as the blue dextran marker reached the base of the column and the radioactivity in each measured using a dose calibrator (Capintec, Model 15, Ramsey, NJ, USA) set for ^124I detection. Peak fractions were pooled for use in the study, and radiopurity was assessed as described above. […]

Data set [2] is described as follows: Solution stability (stated, unpublished data). Format: physicochemical. The note with it: Wall and Kennel.
Data set [3] deals with synthetic amyloid fibrils of recombinant human λ6 light chain variable domain of patient Wil (rVλ6Wil) (human). The data set is described as follows: co-sedimentation; peptide binding assay with rVλ6Wil fibrils in suspension in 10 mM phosphate buffer (pH 7.6) containing 0.15 (PBS), 0.25, 0.5, 1.0 or 2.0 M NaCl; bound peptide as % total counts added; n = 2.
Data set [4] shares this target. The data set is described as follows: co-sedimentation; ex vivo amyloid binding assay: 25 µL of 1 mg/mL synthetic rVλ6Wil fibrils resuspended in 200 µL PBS with 0.05% Tween-20, ~5 ng 125I-p5+14 added, rotated at RT for 1 h, centrifuged twice at 15,000 x g; % of counts in the pellet.
The target is the same in data set [5]. In words: ELISA; EuLISA: rVλ6Wil fibrils coated and dried on NUNC Maxisorb wells (8 µg/mL, 50 µL, overnight 37 °C), blocked with 1% BSA; biotinylated p5+14 1 x 10^-10 to 1 x 10^-6 M, 1 h at 37 °C, PBS with 0.05% Tween 20; europium/streptavidin detection; n = 3. (In an ELISA, binding on a coated surface is turned into a signal by an enzyme label.)

On to “GGGYSKAQKAQAKQAKQAQKAQKAQAKQAKQAQKAQKAQAKQAKQ [p5+14]”, for which the “time to clearance from healthy organs” value in data set [1] is given as at most 2 h. Moreover, the “solution stability relative to p5” value in data set [2] was “greater solution stability”.

B1: 125I-p5+14 (radioiodinated peptide p5+14) (peptide)
peptide: GGGY(125I)SKAQKAQAKQAKQAQKAQKAQAKQAKQAQKAQKAQAKQAKQ
For B1, in data set [3], the % bound at 2 M NaCl came to 20%, the % bound at the lowest NaCl concentration (0.15 M) stood at 95% and the NaCl concentration at half-maximal loss of binding (printed as EC50) was determined as 1 M. Moreover, the % bound in data set [4] was found to be 95.7%.

B2: biotinylated p5+14 (with a cysteine residue at the N-terminal) (peptide)
peptide: C(maleimide‑biotin)GGGYSKAQKAQAKQAKQAQKAQKAQAKQAKQAQKAQKAQAKQAKQ
Turning to B2, in data set [5], the EC50 was 15 nM.
